According to patent US20130203080A1 (UNIVERSITE MONTPELLIER 2, published 2013):

How the values were obtained:
[1] = biological target: T1, PiT1 phosphate transporter on human cells (T cells, CD34 progenitor cells) (human, UniProt Q8WUM9 1-679); test: flow cytometry, tagged RBD on unstimulated and TCR-stimulated human T cells
T1 construct: whole, on cells; also called GaLV Env receptor
T1 sequence: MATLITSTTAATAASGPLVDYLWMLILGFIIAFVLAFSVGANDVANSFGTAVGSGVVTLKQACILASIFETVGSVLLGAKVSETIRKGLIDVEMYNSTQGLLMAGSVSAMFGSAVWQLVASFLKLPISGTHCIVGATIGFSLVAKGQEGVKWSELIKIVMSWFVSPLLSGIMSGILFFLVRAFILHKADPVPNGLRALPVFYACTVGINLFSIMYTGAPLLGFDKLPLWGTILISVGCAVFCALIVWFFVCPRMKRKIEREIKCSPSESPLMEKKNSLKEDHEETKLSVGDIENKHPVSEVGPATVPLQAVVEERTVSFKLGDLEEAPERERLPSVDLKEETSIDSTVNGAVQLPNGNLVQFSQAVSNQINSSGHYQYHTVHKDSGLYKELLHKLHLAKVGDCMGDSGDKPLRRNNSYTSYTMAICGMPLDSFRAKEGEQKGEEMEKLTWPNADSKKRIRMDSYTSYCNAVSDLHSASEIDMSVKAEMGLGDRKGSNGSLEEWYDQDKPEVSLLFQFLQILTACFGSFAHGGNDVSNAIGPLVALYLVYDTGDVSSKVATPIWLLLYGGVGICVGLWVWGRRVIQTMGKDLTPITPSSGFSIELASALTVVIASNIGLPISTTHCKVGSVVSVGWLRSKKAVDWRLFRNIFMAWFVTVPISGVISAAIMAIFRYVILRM

[2] = biological target: T2, PiT1 phosphate transporter on murine cells (CD4+ T cells; cerebellar cortex sections) (mouse, UniProt Q61609 1-681); test: flow cytometry, RBD on murine CD4+ T cells polarised to Th0, Th1, Th2, Th17 or iTreg, day 4
T2 construct: whole, on cells
T2 sequence: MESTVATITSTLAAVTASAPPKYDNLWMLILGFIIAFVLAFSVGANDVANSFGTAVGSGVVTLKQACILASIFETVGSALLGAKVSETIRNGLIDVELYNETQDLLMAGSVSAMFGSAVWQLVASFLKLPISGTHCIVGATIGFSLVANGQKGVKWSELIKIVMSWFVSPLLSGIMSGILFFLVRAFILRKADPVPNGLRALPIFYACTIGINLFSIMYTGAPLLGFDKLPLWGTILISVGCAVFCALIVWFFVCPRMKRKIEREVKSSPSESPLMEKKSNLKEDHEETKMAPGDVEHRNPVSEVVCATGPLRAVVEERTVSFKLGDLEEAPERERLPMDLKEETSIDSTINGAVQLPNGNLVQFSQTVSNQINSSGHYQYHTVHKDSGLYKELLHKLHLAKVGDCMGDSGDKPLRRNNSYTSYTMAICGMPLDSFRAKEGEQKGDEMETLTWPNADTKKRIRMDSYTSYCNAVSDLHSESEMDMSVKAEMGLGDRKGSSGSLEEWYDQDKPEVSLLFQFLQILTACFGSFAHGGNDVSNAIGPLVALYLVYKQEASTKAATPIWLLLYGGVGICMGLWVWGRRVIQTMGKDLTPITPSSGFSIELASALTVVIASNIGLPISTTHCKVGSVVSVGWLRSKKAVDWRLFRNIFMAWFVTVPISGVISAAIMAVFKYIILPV

[3] = biological target: T2, PiT1 phosphate transporter on murine …; test: fluorescence staining of mouse cerebellum cryosections with RBD-rFc, biotinylated anti-rabbit IgG, Streptavidin-Alexa488
[4] = biological target: T3, glucose transporter Glut1 on human cells (B cells, B-CLL cells, red blood cells, T cells) (human, UniProt P11166 1-492); test: flow cytometry, GFP-tagged RBD on human red blood cells
T3 construct: whole, on cells; Endogenous receptor on primary human cells; the species follows from the cells; also called HTLV Env receptor
T3 sequence: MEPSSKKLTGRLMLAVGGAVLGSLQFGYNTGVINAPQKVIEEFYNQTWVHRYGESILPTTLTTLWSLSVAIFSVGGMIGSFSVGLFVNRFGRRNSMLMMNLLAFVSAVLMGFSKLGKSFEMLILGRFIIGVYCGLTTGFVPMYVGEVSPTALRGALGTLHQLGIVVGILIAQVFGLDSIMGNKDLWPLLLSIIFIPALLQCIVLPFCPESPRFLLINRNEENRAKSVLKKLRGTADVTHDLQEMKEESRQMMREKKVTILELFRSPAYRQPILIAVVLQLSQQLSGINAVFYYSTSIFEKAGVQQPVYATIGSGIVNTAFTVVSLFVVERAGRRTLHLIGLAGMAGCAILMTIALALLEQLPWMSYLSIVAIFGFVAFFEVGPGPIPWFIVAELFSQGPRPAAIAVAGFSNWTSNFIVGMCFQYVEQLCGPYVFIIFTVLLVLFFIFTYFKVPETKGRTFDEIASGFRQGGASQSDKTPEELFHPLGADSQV

B1: Gibbon Ape Leukemia virus (GALV) Env receptor binding domain, tagged soluble receptor binding ligand (ligand)
chain: TSLQNKNPHQPMTLTWQVLSQTGDVVWDTKAVQPPWTWWPTLKPDVCALAASLESWDIPGTDVSSSKRVRPPDSDYTAAYKQITWGAIGCSYPRARTRMASSTFYVCPRDGRTLSEARRCGGLESLYCKEWDCETTGTGYWLSKSSKDLITVKWDQNSEWTQKFQQCHQTGWCNPLKIDFTDKGKLSKDWITGKTWGLRFYVSGHPGVQFTIRLKITNMPAVAVGPDLVLVEQGPPRTSLALPPPLPPREAPPPSLPDSNSTALATSAQTPTVRKTIVTLNTPPPTTGDRLFDLVQGAFLTLNATNPGATESCWLC
notes: also called GaLV RBD; not shown: tag not specified
[1]
  binding result: binds
[2]
  binding result: binds

B2: Gibbon ape Leukemia Virus-RBD soluble RBD-rFc fusion protein (Fc fusion)
chain: TSLQNKNPHQPMTLTWQVLSQTGDVVWDTKAVQPPWTWWPTLKPDVCALAASLESWDIPGTDVSSSKRVRPPDSDYTAAYKQITWGAIGCSYPRARTRMASSTFYVCPRDGRTLSEARRCGGLESLYCKEWDCETTGTGYWLSKSSKDLITVKWDQNSEWTQKFQQCHQTGWCNPLKIDFTDKGKLSKDWITGKTWGLRFYVSGHPGVQFTIRLKITNMPAVAVGPDLVLVEQGPPRTSLALPPPLPPREAPPPSLPDSNSTALATSAQTPTVRKTIVTLNTPPPTTGDRLFDLVQGAFLTLNATNPGATESCWLC
notes: also called GRBD; not shown: rabbit IgG Fc (rFc)
[3]
  binding result: binds

B3: HTLV2 (SEQ ID NO: 28) tagged with a green fluorescent protein (GFP) (ligand)
chain: QQSRCTLTVGISSYHSSPCSPTQPVCTWNLDLNSLTTDQRLHPPCPNLITYSGFHKTYSLYLFPHWIKKPNRQGLGYYSPSYNDPCSLQCPYLGCQSWTCPYTGPVSSPSWKFHSDVNFTQEVSQVSLRLHFSKCGSSMTLLVDAPGYDPLWFITSEPTQPPPTSPPLVHDSDLEHVLTPSTSWTTKILKFIQLTLQSTNYSCMVC
notes: also called HRBD-EGFP; non antibody Glut1-ligand; not shown: green fluorescent protein tag (GFP / EGFP)
[4]
  binding result: binds
